Data: patent publication US20100029702A1, “Method For Identification of Compound Having Anti-Anxiety Effect” (priority 2006, published 2010)

Target: T1, ph01207 gene product (Homo sapiens, UniProt O60241, DEL308-362)
T1 construct: oocytes expressing the gene (ph01207 cDNA clones); expressed in transfected cells; host or cells: Xenopus laevis oocytes
T1 sequence (O60241 with tags, fused parts or gaps DEL308-362): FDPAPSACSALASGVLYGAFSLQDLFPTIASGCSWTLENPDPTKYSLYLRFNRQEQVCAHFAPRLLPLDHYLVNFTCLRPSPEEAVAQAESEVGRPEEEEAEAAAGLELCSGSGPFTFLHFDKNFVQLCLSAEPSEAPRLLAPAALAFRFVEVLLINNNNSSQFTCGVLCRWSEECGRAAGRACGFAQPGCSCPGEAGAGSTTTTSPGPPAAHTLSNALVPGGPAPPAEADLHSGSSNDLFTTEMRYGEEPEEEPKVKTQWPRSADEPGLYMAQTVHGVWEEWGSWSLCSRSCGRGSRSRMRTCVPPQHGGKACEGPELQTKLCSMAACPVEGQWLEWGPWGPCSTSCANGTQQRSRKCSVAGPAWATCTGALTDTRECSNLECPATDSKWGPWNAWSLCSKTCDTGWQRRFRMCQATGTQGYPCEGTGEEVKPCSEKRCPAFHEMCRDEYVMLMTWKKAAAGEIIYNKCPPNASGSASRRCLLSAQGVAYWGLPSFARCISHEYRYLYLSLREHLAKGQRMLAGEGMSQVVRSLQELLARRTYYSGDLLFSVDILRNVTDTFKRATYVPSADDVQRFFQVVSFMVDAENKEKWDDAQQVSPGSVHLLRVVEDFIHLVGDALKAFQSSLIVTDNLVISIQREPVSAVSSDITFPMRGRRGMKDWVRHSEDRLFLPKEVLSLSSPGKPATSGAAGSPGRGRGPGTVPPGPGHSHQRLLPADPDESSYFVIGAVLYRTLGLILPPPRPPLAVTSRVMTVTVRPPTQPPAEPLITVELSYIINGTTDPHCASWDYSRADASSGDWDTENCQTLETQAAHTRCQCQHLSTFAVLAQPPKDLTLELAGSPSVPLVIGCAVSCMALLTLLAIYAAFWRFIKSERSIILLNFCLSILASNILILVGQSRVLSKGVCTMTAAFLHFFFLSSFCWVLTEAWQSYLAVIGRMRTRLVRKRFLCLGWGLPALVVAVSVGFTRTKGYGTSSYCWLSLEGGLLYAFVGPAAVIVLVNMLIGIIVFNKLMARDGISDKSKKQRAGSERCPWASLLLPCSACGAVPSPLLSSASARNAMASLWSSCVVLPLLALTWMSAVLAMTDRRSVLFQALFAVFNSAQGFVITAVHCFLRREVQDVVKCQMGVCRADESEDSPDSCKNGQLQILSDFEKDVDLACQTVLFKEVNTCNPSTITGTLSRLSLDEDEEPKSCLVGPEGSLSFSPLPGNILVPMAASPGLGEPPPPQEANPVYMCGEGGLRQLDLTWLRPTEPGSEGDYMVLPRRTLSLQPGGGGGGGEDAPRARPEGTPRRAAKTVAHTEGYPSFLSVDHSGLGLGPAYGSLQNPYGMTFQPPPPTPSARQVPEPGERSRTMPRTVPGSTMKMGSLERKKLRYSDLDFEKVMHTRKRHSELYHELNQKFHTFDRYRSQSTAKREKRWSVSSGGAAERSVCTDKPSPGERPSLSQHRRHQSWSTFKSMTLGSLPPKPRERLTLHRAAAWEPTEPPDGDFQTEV
Experiment: Intracellular calcium concentration change assay with ph01207#3F8-17 strain: inhibition of the response to CCK-8S
Assay type: cell-based
Settings: 10 nM CCK-8S, wells with buffer
Description: A compound that inhibits a response of the ph01207 gene product to a ligand was identified by an intracellular calcium concentration change assay system using the ph01207-expressing cell strain.
The ph01207-expressing cell strain was constructed as follows. First, a ph01207-expressing vector not containing an epitope tag was constructed by recombination between a ph01207 cDNA clone identified in Example 1 and pcDNA3.1 (Invitrogen) with Asp718I (Boehringer) and NotI (TAKARA). The ph01207-expressing vector was transfected into the CHO-K1 strain, a host cell, using Lipofectamine 2000 (Invitrogen), and the cells were screened for stably-expressing strains by a selective medium containing G418. Expression of the gene introduced into the cell was detected by the FCM analysis using an anti-ph01207 antibody.
As a result, a plurality of cell strains stably expressing ph01207 were obtained. A compound was identified using the ph01207#3F8-17 strain, a clone of these strains.
As a ligand, CCK-8S (Peptide Institute, Inc.) was used. […]
Compounds were specifically identified as follows. […] After reaction, CCK-8S (Peptide Institute, Inc.) and a compound was added, and changes over time in the fluorescence intensity in each well were measured for 80 sec. […] Changes over time in the fluorescence intensity were measured using the FLEX station (Molecular Device).

cholecystokinin octapeptide sulfated form [CCK-8S]
Change in fluorescence intensity (intracellular Ca2+) after addition of CCK-8S: increased
